According to PMC10011822 (The Journal of Biological Chemistry, 2023):

B2: N99A SufS (enzyme, E. coli)
chain: MIFSVDKVRADFPVLSREVNGLPLAYLDSAASAQKPSQVIDAEAEFYRHGYAAVHRGIHTLSAQATEKMENVRKRASLFINARSAEELVFVRGTTEGIALVANSWGNSNVRAGDNIIISQMEHHANIVPWQMLCARVGAELRVIPLNPDGTLQLETLPTLFDEKTRLLAITHVSNVLGTENPLAEMITLAHQHGAKVLVDGAQAVMHHPVDVQALDCDFYVFSGHKLYGPTGIGILYVKEALLQEMPPWEGGGSMIATVSLSEGTTWTKAPWRFEAGTPNTGGIIGLGAALEYVSALGLNNIAEYEQNLMHYALSQLESVPDLTLYGPQNRLGVIAFNLGKHHAYDVGSFLDNYGIAVRTGHHCAMPLMAYYNVPAMCRASLAMYNTHEEVDRLVTGLQRIHRLLG
notes: SufS cysteine desulfurase, E. coli, UniProt P77444, with N99A; gene in pET-21(a); Carries the PLP cofactor; No tag named; Dimer in the crystal structure; also called SufS N99A; source: E. coli BL21(DE3)Δsuf, pET21, purified (Q-XL, Phenyl HP, Superdex 200)
B3: N99D SufS (enzyme, E. coli)
chain: MIFSVDKVRADFPVLSREVNGLPLAYLDSAASAQKPSQVIDAEAEFYRHGYAAVHRGIHTLSAQATEKMENVRKRASLFINARSAEELVFVRGTTEGIDLVANSWGNSNVRAGDNIIISQMEHHANIVPWQMLCARVGAELRVIPLNPDGTLQLETLPTLFDEKTRLLAITHVSNVLGTENPLAEMITLAHQHGAKVLVDGAQAVMHHPVDVQALDCDFYVFSGHKLYGPTGIGILYVKEALLQEMPPWEGGGSMIATVSLSEGTTWTKAPWRFEAGTPNTGGIIGLGAALEYVSALGLNNIAEYEQNLMHYALSQLESVPDLTLYGPQNRLGVIAFNLGKHHAYDVGSFLDNYGIAVRTGHHCAMPLMAYYNVPAMCRASLAMYNTHEEVDRLVTGLQRIHRLLG
notes: SufS cysteine desulfurase, E. coli, UniProt P77444, with N99D; gene in pET-21(a); Carries the PLP cofactor; No tag named; Dimer in the crystal structure; residues 248 to 268 have no electron density; also called SufS N99D; source: E. coli BL21(DE3)Δsuf, pET21, purified (Q-XL, Phenyl HP, Superdex 200)

Key:
SufS = SufS (Escherichia coli, UniProt P77444); details: no SufE, 500 μM cysteine, with and without 2 mM TCEP, pH 8.0, 25 °C
SufE (Escherichia coli) = SufE (Escherichia coli) (UniProt P76194); details: cited from earlier work
D346R SufS = target: T1, D346R SufS (E. coli, UniProt P77444 1-406, D346R); experiment: fluorescence polarisation; SufS (0.2-40 μM) titrated against 100 nM BODIPY-labelled C51A/E107C SufE; no cysteine; 50 mM MOPS pH 8, 150 mM NaCl, 0.1 mg/ml BSA; 30 min at room temperature; black 96-well plates; fit to a single-affinity site (Equation 3); details: both partners purified
T1 construct: SufS cysteine desulfurase, E. coli, UniProt P77444, with D346R; gene in pET-21(a); No tag named; nothing is said of the oligomeric state of this variant; source: E. coli BL21(DE3)Δsuf, pET21, purified (Q-XL, Phenyl HP, Superdex 200)
T1 sequence: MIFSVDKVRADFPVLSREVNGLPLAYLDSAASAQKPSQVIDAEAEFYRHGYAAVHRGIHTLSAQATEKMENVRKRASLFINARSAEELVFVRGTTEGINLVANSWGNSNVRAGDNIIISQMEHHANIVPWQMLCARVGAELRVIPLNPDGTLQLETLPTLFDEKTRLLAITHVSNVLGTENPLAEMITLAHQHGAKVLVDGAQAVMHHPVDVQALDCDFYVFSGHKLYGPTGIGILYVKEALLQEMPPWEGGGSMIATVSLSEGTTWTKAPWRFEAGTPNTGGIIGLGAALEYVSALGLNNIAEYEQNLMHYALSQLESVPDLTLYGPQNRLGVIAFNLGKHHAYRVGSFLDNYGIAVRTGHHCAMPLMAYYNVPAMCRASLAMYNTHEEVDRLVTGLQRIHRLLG

[1] = target: T2, SufS cysteine desulfurase, wild type (E. coli, UniProt P77444 1-406); experiment: as above; details: both partners purified
T2 construct: SufS cysteine desulfurase, E. coli, UniProt P77444; gene in pET-21(a); PLP-dependent enzyme; as purified it carries the pyridoxal-5'-phosphate cofactor (internal aldimine); also called WT SufS; wt SufS; source: E. coli BL21(DE3)Δsuf, pET21, purified (Q-XL, Phenyl HP, Superdex 200)
T2 sequence: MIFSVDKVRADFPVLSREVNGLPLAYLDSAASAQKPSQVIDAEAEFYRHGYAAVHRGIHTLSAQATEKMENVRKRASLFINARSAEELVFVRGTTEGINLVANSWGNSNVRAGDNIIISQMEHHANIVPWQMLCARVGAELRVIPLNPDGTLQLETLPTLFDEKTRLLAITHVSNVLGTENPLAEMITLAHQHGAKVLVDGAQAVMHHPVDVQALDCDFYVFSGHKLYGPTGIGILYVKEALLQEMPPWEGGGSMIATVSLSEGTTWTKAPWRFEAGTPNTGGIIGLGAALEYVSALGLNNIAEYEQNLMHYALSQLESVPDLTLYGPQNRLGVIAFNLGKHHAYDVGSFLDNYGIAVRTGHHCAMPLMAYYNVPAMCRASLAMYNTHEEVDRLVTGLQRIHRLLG

N99D SufS [2] = target: B3; experiment: as above; details: both partners purified
N99A SufS [3] = target: B2; experiment: as above; details: both partners purified
[4] = target: T2, SufS cysteine desulfurase, wild type; experiment: fluorescence polarisation; as without cysteine, but in the presence of 500 μM cysteine: SufS titrated against 100 nM BODIPY-labelled C51A/E107C SufE; 50 mM MOPS pH 8, 150 mM NaCl, 0.1 mg/ml BSA; room temperature; details: both partners purified
N99D SufS [5] = target: B3; experiment: as above; details: both partners purified
N99A SufS [6] = target: B2; experiment: as above; details: both partners purified
[7] = target: the molecule itself; experiment: crystal structure; sitting drop vapor diffusion at 20 °C, 4 to 4.5 M NaCl, 100 mM MES pH 6.5; SufS variant alone, dimer

N[C@@H](CS)C(=O)O [cysteine]
alanine production plate-reader assay; UV-visible cysteine-PLP intermediates (SufS): WT SufS is also capable of producing alanine

SufS (from UniProt P77444)
Kd (SufE (Escherichia coli)): 0.5 µM

B1: BODIPY-labelled C51A/E107C SufE (natural protein, E. coli)
chain: MALLPDKEKLLRNFLRCANWEEKYLYIIELGQRLPELRDEDRSPQNSIQGAQSQVWIVMRQNAQGIIELQGDSDAAIVKGLIAVVFILYDQMTPQDIVNFDVRPWFCKMALTQHLTPSRSQGLEAMIRAIRAKAAALS
modifications: BODIPY FL maleimide on the cysteine at 107 (E107C); labelling efficiency between 60 and 80%
notes: SufE transpersulfurase, E. coli, UniProt P76194, with C51A and E107C; gene in pET-21(a); No tag named; also called labeled C51A/E107C SufE; BODPIY-C51A/E107C SufE; source: E. coli BL21(DE3), pET21, purified (Q-XL, Superdex 200), labelled with BODIPY FL maleimide
Kd (D346R SufS): > 40 µM | Kd [1]: 5.2 µM | Kd (N99D SufS [2]): 9.9 ± 3 µM | Kd (N99A SufS [3]): 6.2 ± 1.8 µM | Kd [4]: 0.6 ± 0.2 µM | Kd (N99D SufS [5]): 3.3 ± 0.7 µM | Kd (N99A SufS [6]): 3.1 ± 0.6 µM

B2
binding result [7]: binds

B3
binding result [7]: binds
